Data from patent US20160046707A1 (EISAI R AND D MANAGEMENT, published 2016).

Assays:
Assay in all cases: ELISA, plate-bound chemokine (1 ug/ml), antibody 10 ug/ml, OD450
recombinant human CXCL2 = biological target: T1, recombinant human CXCL2 (human, UniProt P19875 35-107)
T1 construct: also called GROβ
T1 sequence (looked up): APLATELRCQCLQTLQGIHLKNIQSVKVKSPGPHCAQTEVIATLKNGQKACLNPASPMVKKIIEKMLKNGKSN
Protocol: (§1) The wells of a 96-well plate were coated with 1 μg/ml of the recombinant human chemokines in PBS (−). After overnight incubation at 4° C., the wells were blocked with 1× Block-Ace (Dainippon Sumitomo Pharma, UK-B80) for 1 hour at room temperature. After washing twice with 0.02% Tween 20/PBS (−), we added 50 μl of 10 μg/ml purified 36F7C10, chimeric 36F710, HC2/LK3, or HC2/LC3 in 0.02% Tween 20/PBS (−) to each well. The wells were incubated for 1 hour at room temperature and washed three times as described in Example 3. […] After washing five times, a TMBZ (3,3′,5,5′-tetramethylbenzidine) solution (1%, in N,N-Dimethylformamide) was added to the wells and incubated for 15-30 minutes. The reaction was stopped by adding an equal volume of a 2 M H₂SO₄ stopping solution, and the optical density was read at 450 nm by ARVO (PerkinElmer).

recombinant human CCL3 = biological target: T2, recombinant human CCL3 (human, UniProt P10147 27-92, limits assumed)
T2 construct: also called MIP-1a
T2 sequence (looked up): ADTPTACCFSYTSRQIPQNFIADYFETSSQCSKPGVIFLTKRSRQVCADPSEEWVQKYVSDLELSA
Protocol: as §1

recombinant human CXCL10 = biological target: T3, recombinant human CXCL10 (human, UniProt P02778 22-98)
T3 construct: also called IP-10
T3 sequence (looked up): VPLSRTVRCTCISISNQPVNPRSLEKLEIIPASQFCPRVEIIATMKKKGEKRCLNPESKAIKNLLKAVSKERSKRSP
Protocol: as §1

recombinant human CXCL1 = biological target: T4, recombinant human CXCL1 (human, UniProt P09341 35-107)
T4 construct: also called GROα
T4 sequence (looked up): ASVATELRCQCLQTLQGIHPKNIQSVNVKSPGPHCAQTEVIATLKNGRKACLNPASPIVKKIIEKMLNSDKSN
Protocol: as §1

recombinant human CCL19 = biological target: T5, recombinant human CCL19 (human, UniProt Q99731 22-98)
T5 construct: also called MIP-3b
T5 sequence (looked up): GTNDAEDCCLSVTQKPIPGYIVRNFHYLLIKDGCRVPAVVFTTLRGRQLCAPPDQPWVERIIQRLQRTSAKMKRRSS
Protocol: as §1

[1] = biological target: T6, recombinant human CX3CL1 (Extracellular Domain) (human, UniProt P78423 25-341)
T6 construct: extracellular domain; also called FKN
T6 sequence (looked up): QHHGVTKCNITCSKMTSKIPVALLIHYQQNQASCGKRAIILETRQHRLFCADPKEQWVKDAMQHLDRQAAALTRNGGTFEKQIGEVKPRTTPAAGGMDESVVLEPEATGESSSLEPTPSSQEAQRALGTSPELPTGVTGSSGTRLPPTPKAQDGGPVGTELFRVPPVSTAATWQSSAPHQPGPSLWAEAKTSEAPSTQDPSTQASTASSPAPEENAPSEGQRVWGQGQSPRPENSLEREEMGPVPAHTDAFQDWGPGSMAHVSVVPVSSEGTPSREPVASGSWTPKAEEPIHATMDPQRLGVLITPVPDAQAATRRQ
Protocol: as §1

recombinant human CCL28 = biological target: T7, recombinant human CCL28 (human, UniProt Q9NRJ3 23-127, limits assumed)
T7 sequence (looked up): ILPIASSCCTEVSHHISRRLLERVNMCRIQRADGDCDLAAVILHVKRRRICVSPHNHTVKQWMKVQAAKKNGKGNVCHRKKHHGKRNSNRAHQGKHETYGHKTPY
Protocol: as §1

recombinant human CXCL8 = biological target: T8, recombinant human CXCL8 (human, UniProt P10145 28-99)
T8 construct: also called IL-8
T8 sequence (looked up): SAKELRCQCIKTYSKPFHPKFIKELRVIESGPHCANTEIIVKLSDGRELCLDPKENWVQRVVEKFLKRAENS
Protocol: as §1

recombinant human CXCL13 = biological target: T9, recombinant human CXCL13 (human, UniProt O43927 23-109)
T9 construct: also called BCA-1/BLC
T9 sequence (looked up): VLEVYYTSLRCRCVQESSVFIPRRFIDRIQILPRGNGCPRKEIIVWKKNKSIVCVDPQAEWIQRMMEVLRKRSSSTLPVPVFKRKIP
Protocol: as §1

recombinant human CCL17 = biological target: T10, recombinant human CCL17 (human, UniProt Q92583 24-94)
T10 construct: also called TARC
T10 sequence (looked up): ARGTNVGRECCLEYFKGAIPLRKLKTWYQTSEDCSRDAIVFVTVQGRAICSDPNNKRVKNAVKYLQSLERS
Protocol: as §1

recombinant human CCL11 = biological target: T11, recombinant human CCL11 (human, UniProt P51671 24-97)
T11 construct: also called Eotaxin
T11 sequence (P51671 24-97 limits assumed): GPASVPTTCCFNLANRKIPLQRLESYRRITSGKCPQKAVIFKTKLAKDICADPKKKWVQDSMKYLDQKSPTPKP
Protocol: as §1

recombinant human CCL25 = biological target: T12, recombinant human CCL25 (human, UniProt O15444 24-150)
T12 construct: also called TECK
T12 sequence (looked up): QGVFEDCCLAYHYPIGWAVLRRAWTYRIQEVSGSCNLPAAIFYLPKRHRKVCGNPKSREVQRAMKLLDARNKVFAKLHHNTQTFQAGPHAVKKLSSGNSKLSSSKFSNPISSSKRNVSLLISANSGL
Protocol: as §1

recombinant human CCL24 = biological target: T13, recombinant human CCL24 (human, UniProt O00175 27-119, limits assumed)
T13 construct: also called Eotaxin-2/MPIF-2
T13 sequence (looked up): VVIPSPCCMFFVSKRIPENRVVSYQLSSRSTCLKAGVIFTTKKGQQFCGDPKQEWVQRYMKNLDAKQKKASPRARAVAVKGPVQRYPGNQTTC
Protocol: as §1

Measured: binding result

B1: mouse anti-human CCL20 monoclonal antibody 36F7C10 (antibody, V domains shown)
VH: QVQLQQPGAELVKPGASVKMSCKASGYTFTNYWMHWVKQRPGQGLEWIGVIDPSDSYTTYNQKFKGKATLTVDTSSSTAYMQLSSLTSEDSAVYYCTRGNYGVDYAMDYWGQGTSVTVSS
VL: DIQMTQSPASLSASVGETVTITCGASENIYGALNWYQRKQGKSPQLLIYGATNLADGMSSRFSGSGSGRQYSLKISSLHPDDVATYYCQNVLITPYTFGGGTKLEIK
notes: Mouse hybridoma antibody; also called MouseMAb; parental mouse clone 36F7C10
no binding (tested: 10 ug/ml): all assays above

B2: chimeric 36F7C10 antibody (36F7C10-hFc) (antibody, V domains shown)
VH: QVQLQQPGAELVKPGASVKMSCKASGYTFTNYWMHWVKQRPGQGLEWIGVIDPSDSYTTYNQKFKGKATLTVDTSSSTAYMQLSSLTSEDSAVYYCTRGNYGVDYAMDYWGQGTSVTVSS
VL: DIQMTQSPASLSASVGETVTITCGASENIYGALNWYQRKQGKSPQLLIYGATNLADGMSSRFSGSGSGRQYSLKISSLHPDDVATYYCQNVLITPYTFGGGTKLEIK
notes: also called chimeric 36F710; Chimeric MAb
no binding (tested: 10 ug/ml): all assays above

B3: humanized anti-human CCL20 antibody 36LK3/36HC2 (antibody, human IgG1, kappa, V domains shown)
VH: QVQLVQSGAEVKKPGASVKVSCKASGYTFTNYWMHWVRQAPGQGLEWMGVIDPSDSYTTYAQKFQGRVTMTVDTSTSTVYMELSSLRSEDTAVYYCARGNYGVDYAMDYWGQGTLVTVSS
VL: DIQMTQSPSSLSASVGDRVTITCGASENIYGALNWYQRKPGKAPKLLIYGATNLADGVPSRFSGSGSGRDYTLTISSLQPEDFATYYCQNVLITPYTFGQGTKLEIKR
notes: expressed in HEK293 cells; also called HC2/LK3; HC2LK3
no binding (tested: 10 ug/ml): all assays above

B4: humanized anti-human CCL20 antibody 36LC3/36HC2 (antibody, human IgG1, kappa, V domains shown)
VH: QVQLVQSGAEVKKPGASVKVSCKASGYTFTNYWMHWVRQAPGQGLEWMGVIDPSDSYTTYAQKFQGRVTMTVDTSTSTVYMELSSLRSEDTAVYYCARGNYGVDYAMDYWGQGTLVTVSS
VL: DIQMTQSPSSLSASVGDRVTITCRASENIYGALNWYQQKPGKAPKLLIYGATNLADGVPSRFSGSGSGRQYSLTISSLQPEDFATYYCQNVLITPYTFGGGTKLEIKR
notes: expressed in HEK293 cells; also called HC2/LC3; HC2LC3
no binding (tested: 10 ug/ml): all assays above
